Test results: the RNAGym collection of RNA variant scans (doi:10.7554/elife.90254)

B1: LINE1-mini (parent)
chain: GGCAGAGCUCAACACAGCGUGGCAAAGUGGCUGUGGCUAGACUGCC

Variants of: B1
Experiment: self-cleavage, relative activity (ratio to wild type); higher = more cleavage; in vitro, sequencing; the parent is a self-cleaving ribozyme

Variant | self-cleavage
GGCAGAGCUCAACACAGCGUGGCAAAGUGGAUUUGGCUAGACUGCC [C31A G33U] | 0.08
GGCAGAGCUCAACACAGCAAGGCAAAGUGGCUGUGGCUAGACUGCC [G19A U20A] | 0.51
GGCAGAGCUCAACACAGCAUGGCAAAGUGGCUGUGCCUAGACUGCC [G19A G36C] | 0.16
AGCAGAGCUCAUCACAGCGUGGCAAAGUGGCUGUGGCUAGACUGCC [G1A A12U] | 0.19
GGCAGAGCUCAACACAGCCUGGCAAGGUGGCUGUGGCUAGACUGCC [G19C A26G] | 0.27
GGCAGAGAUCAACACAGCGUGGCAAAGUGGCUGUGGCUAGACUGCC [C8A] | 0.29
GGCUGAGCUCAACACAGCCUGGCAAAGUGGCUGUGGCUAGACUGCC [A4U G19C] | 0.05
GGCAGAGCUCAACACAGCGUGGCAAAGUGGCUGUGGCUAGGUUGCC [A41G C42U] | 0.11
GGCAGAGCUCAACACAGCGUGGCAAAGUGGCUGUGGUUAGACGGCC [C37U U43G] | 0.11
GGCAGAGCUCAACACAGCGUGGCAACGUGGCUGUGGCGAGACUGCC [A26C U38G] | 0.03
GGCAGAGAUCAUCACAGCGUGGCAAAGUGGCUGUGGCUAGACUGCC [C8A A12U] | 0.23
GGCAGAGCUCAACCCAGCGUGGCAAAGUGGCUGUGGCUAGACUGCU [A14C C46U] | 0.18
GGCAGAGCUCAACACCGCGUGCCAAAGUGGCUGUGGCUAGACUGCC [A16C G22C] | 0.09
GGCAGAGCUCAACACAGCGUGGUAAAGUGGCAGUGGCUAGACUGCC [C23U U32A] | 0.2
GGCAGAGCUCAACACAGCGAGGCAAAGUGGCUGUGGCUAGACAGCC [U20A U43A] | 0.08
GGCAGAGCUCAACACAGCGUGGCGGAGUGGCUGUGGCUAGACUGCC [A24G A25G] | 0.75
GGCAGAGCUCAACACAGCGGGGGAAAGUGGCUGUGGCUAGACUGCC [U20G C23G] | 0.38
GGCAGUGCUCAACACAGCGUGGCAAAGUGGUUGUGGCUAGACUGCC [A6U C31U] | 0.31
GGCAAAGCUCAACACAGCGUGGCAAAGUGGCUGUCGCUAGACUGCC [G5A G35C] | 0.08

Variant | self-cleavage
GGCAGAGCUCAACACAGCGUGGCAAAGUAGCUGUGGCUAGACGGCC [G29A U43G] | 0.04
GUCAGAGCUCAACACAGCGUGGCAAAGUGGCUGUGACUAGACUGCC [G2U G36A] | 0.05
GGCAGAGCUCAACACAGCGGUGCAAAGUGGCUGUGGCUAGACUGCC [U20G G21U] | 0.97
GGCAGAGCUCAACACAGUGUGGCAUAGUGGCUGUGGCUAGACUGCC [C18U A25U] | 0.7
GGCAGAGGUCAACACAGCGUGGCAAAGUGGCUGUGGCUUGACUGCC [C8G A39U] | 0.04
GGCAGAGCUCAACACAGCGUGGCAAAGUGGCUGUGGCUAUACUGCA [G40U C46A] | 0.12
GGCAGAGCUCAACGCAGCGUGGCAAAGUGGCUGUGGCUAGACUACC [A14G G44A] | 0.22
GGCAGAGCUCAACACAGCGUGGCAAAGUCGCUGUGGUUAGACUGCC [G29C C37U] | 0.02
GGCAGAGCUCAACACAGCGUGCCAAAGUGGCUGUGGCUAGACUACC [G22C G44A] | 0.13
GGCAGAGCUCAACACAGCGUGGCAAAGUGGCUGUGGCUGCACUGCC [A39G G40C] | 0.08
GGCAGAGCUCAACACAACGUGGCAAGGUGGCUGUGGCUAGACUGCC [G17A A26G] | 0.1
GGCAGAGCUCAACACAGUGUUGCAAAGUGGCUGUGGCUAGACUGCC [C18U G21U] | 2.05
GGCAGAGCUCAACACAGCGUGGCAAAUUGGCUGUGGCUCGACUGCC [G27U A39C] | 0.22
GGCAGAGCUCAACACAGCGUGGCAAAGUGGCUGUGGUUAGCCUGCC [C37U A41C] | 0.02
GGCAGAGCUCAACACAGCUUGGCAAAGUGGCUGUGGCUAGACUGCG [G19U C46G] | 0.71
GGCAGAGCUCAACACAGCGUGGCAAAGUGGCUGUGGCUCGACUGCG [A39C C46G] | 0.17
GGCAGAGCUCUACACAGCGUCGCAAAGUGGCUGUGGCUAGACUGCC [A11U G21C] | 0.12
GGCCGAGCUCAACACAGCGUGGCAGAGUGGCUGUGGCUAGACUGCC [A4C A25G] | 0.12
GGCAGAGCUCAAUACAGCGUGGCAAAGUGGCUUUGGCUAGACUGCC [C13U G33U] | 0.06

Variant | self-cleavage
GGCAGAGCUCAACACAGCGUGGCAAAGUGGCGGUGGCUAGACUCCC [U32G G44C] | 0.06
GGCAGAGCUCAACACAGUGUGGCAAAGUGGCUGUGGCUAGACUUCC [C18U G44U] | 0.07
GGCAGAGCUCAACACAGGGUGGCUAAGUGGCUGUGGCUAGACUGCC [C18G A24U] | 0.76
GGGAGAGCUCAACACAGCGUGGCAAAGUGACUGUGGCUAGACUGCC [C3G G30A] | 0.82
GGCAGAGCUAAACACAGCGUGGCAAAGUGGCAGUGGCUAGACUGCC [C10A U32A] | 0.02
GGCAGAGCUCAAGACAGCGUGACAAAGUGGCUGUGGCUAGACUGCC [C13G G22A] | 0.21
GCCAAAGCUCAACACAGCGUGGCAAAGUGGCUGUGGCUAGACUGCC [G2C G5A] | 0.05
GGCAGAGGACAACACAGCGUGGCAAAGUGGCUGUGGCUAGACUGCC [C8G U9A] | 0.21
GGCCGAGCUCAACACAGCGUGGCAAAGUGGCUGUGCCUAGACUGCC [A4C G36C] | 0.09
GGCAGAGCUCAACACAGCGUGGGUAAGUGGCUGUGGCUAGACUGCC [C23G A24U] | 0.75
GGCAGAGCUCAACACAGAGUGGCAAAGUGGAUGUGGCUAGACUGCC [C18A C31A] | 0.16
GGCAGAGUUCACCACAGCGUGGCAAAGUGGCUGUGGCUAGACUGCC [C8U A12C] | 0.04
GGCAGAGCUCAUCACAGCGUGGCAAAGUGGGUGUGGCUAGACUGCC [A12U C31G] | 0.04
GGCAGAGCUCAACACAGCGUGGCAUAGUGGCUGUGGCUAGACUGUC [A25U C45U] | 2.13
GGCAGAGAUCAACACAGCGUGGCAAAGUGGCUGUGGCUAGGCUGCC [C8A A41G] | 0.29
GGCAGAGCACAACACAGCGUGGUAAAGUGGCUGUGGCUAGACUGCC [U9A C23U] | 0.21
GGCAUAGCUCAACACAGCGUGGCAAAGUGGCUGGGGCUAGACUGCC [G5U U34G] | 0.04
GGCAGAGCUCAGCACAGCGUGACAAAGUGGCUGUGGCUAGACUGCC [A12G G22A] | 0.03
